Experimental data as given in PMC3777911 (PLoS ONE, 2013).

Assays:
[1] = target: T1, HA-Sec13/His-Sec31A complex (outer COPII coat), wild type ( | human, UniProt P55735 1-322; O94979 1-1220); experiment: pull-down; His-tagged Sec31A (Sec13/Sec31A) immobilised on Nickel beads, recombinant ALG-2 versions added, in the presence of Ca2+; eluates on SDS-PAGE, SyproRed; ratios from fluorescence intensity; settings: both partners purified
T1 construct: Sec13, mammalian COPII outer coat protein; human Sec31A; also called Sec13/31A; Sec13/Sec31A (wt); source: co-expressed in ES-SF9 cells (Bac-to-Bac baculovirus), purified (Ni-NTA)

His-Sec31A = target: T2, His-Sec31A (human, UniProt O94979 1-1220); experiment: co-purification (Ni-NTA affinity chromatography); the two chains co-expressed in ES-SF9 cells; complex purified on Ni-NTA through the His tag of Sec31A or Sec24; purified Sec13/Sec31A collected again on Ni beads, SyproRed; settings: partners not purified
T2 construct: human Sec31A; also called wt Sec31A; source: co-expressed with HA-Sec13 in ES-SF9 cells (Bac-to-Bac baculovirus)
T2 sequence (looked up): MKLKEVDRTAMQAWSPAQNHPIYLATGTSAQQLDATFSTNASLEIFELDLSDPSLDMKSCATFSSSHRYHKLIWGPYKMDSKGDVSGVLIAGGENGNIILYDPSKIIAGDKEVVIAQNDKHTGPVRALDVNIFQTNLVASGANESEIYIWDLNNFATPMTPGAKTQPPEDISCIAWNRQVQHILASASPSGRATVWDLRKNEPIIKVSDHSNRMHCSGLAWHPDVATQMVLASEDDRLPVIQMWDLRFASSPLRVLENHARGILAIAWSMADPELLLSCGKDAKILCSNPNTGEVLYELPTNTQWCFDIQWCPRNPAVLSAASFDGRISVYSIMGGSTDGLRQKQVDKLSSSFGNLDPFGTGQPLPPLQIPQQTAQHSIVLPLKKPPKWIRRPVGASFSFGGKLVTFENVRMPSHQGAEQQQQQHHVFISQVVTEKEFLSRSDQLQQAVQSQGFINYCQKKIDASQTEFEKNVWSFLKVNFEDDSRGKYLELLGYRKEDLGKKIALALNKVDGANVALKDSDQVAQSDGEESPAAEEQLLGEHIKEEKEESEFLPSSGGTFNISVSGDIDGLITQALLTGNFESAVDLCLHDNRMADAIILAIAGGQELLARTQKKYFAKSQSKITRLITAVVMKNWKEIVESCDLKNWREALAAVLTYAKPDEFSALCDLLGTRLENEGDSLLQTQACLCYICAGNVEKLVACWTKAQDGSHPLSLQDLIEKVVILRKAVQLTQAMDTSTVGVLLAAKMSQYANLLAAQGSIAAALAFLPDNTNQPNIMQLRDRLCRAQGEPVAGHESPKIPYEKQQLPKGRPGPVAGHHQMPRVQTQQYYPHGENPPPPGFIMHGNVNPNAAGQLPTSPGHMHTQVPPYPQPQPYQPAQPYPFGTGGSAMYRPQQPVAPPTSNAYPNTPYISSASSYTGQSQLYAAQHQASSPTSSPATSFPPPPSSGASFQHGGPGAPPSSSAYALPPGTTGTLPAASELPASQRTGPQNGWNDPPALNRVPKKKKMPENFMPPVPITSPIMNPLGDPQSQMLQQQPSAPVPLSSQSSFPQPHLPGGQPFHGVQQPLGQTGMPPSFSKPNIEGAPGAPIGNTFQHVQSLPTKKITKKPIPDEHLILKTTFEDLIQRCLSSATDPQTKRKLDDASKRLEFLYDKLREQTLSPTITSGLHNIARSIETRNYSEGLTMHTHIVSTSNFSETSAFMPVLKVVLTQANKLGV

| Binder | stoichiometry N [1] | stoichiometry N (His-Sec31A) |
| --- | --- | --- |
| ALG-2 (product of the apoptosis linked gene-2), recombinant wild type (natural protein, UniProt P12815 1-191, looked up, also called wt ALG-2; rALG-2; source: recombinant, purified as previously described [16]) MAAYSYRPGPGGGPGPAAGAALPDQSFLWNVFQRVDKDRSGVISDNELQQALSNGTWTPFNPVTVRSIISMFDRENKAGVNFSEFTGVWKYITDWQNVFRTYDRDNSGMIDKNELKQALSGFGYRLSDQFHDILIRKFDRQGRGQIAFDDFIQGCIVLQRLTDIFRRYDTDQDGWIQVSYEQYLSMVFSIV | ~2 ALG-2 per Sec31A (molar ratio) |  |
| HA-Sec13 (natural protein, UniProt P55735 1-322, looked up, Sec13, mammalian COPII outer coat protein; source: co-expressed with His-Sec31A or His-Sec31ADelABD in ES-SF9 cells (Bac-to-Bac baculovirus)) MVSVINTVDTSHEDMIHDAQMDYYGTRLATCSSDRSVKIFDVRNGGQILIADLRGHEGPVWQVAWAHPMYGNILASCSYDRKVIIWREENGTWEKSHEHAGHDSSVNSVCWAPHDYGLILACGSSDGAISLLTYTGEGQWEVKKINNAHTIGCNAVSWAPAVVPGSLIDHPSGQKPNYIKRFASGGCDNLIKLWKEEEDGQWKEEQKLEAHSDWVRDVAWAPSIGLPTSTIASCSQDGRVFIWTCDDASSNTWSPKLLHKFNDVVWHVSWSITANILAVSGGDNKVTLWKESVDGQWVCISDVNKGQGSVSASVTEGQQNEQ |  | ~1 Sec13 per Sec31A (molar ratio) |
